Data reported in patent publication US5567602A, “Recombinant production of chymase” (Arris Pharmaceutical Corporation, priority 1992, dated 1996).
Like-named read-outs stand apart in the source and are kept apart here. Values belong to the molecule of their own block, whether it stands above or below them.

What was measured:
[1] = target: T1, recombinant human chymase (Homo sapiens, UniProt P23946); experiment: Inhibitor profile of recombinant human chymase (residual activity, chromogenic substrate); assay type: biochemical; settings: none = 100
T1 construct: made in house; host or cells: Escherichia coli (XL1-Blue)
T1 sequence (P23946 22-247): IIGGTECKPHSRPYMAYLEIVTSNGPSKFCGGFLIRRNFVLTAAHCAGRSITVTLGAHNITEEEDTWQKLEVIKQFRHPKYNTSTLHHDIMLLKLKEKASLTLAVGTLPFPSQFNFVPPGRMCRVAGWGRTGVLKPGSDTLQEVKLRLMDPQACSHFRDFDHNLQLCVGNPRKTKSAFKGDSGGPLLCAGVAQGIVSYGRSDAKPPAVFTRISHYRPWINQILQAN
Experimental: (§1) Assays for chymase activity were carried out in cuvettes, which contained, in 1 ml, 80 μg of the chromogenic substrate succinyl-L-PheProPhe-p-nitroanilide in 30 mM Tris-HCl, pH 8.0, 1M NaCl. Samples were placed in a spectrophotometer and set to zero absorbance. The assay was initiated by mixing in approximately 10 μg of protein and absorbance at 405 nm was monitored as a function of time. Chymase activity was determined from the specific activity (110 absorbance units/mg/min at 37° C.; Caughey et al., 1988, Bioch. Biophys. Acta 952:142-149) and the slope of the absorbance vs. time plot.
(§2) MBP-chymase fusion protein, recovered in the insoluble fraction from cell extracts, was resuspended in lysis buffer containing β-mercaptoethanol and 8M urea. After sonication to completely resuspend the pellet, the sample was dialyzed against 10 mM sodium phosphate buffer, pH 7.2 overnight. Insoluble material was removed by centrifugation and the fusion protein was then purified by amylose affinity chromatography as above. The fusion protein was eluted from the resin with maltose and dialyzed against 20 mM Tris-HCl, pH 8.0, 100 mM NaCl. The protein was then exchanged into reducing buffer #1 (0.1M Tris-HCl, pH 8.7, 1 mM EDTA, 6M guanidine-HCl, 0.15M NaCl, 0.3 M reduced glutathione) and incubated at room temperature for 2 hours. The sample was diluted 100-fold into oxidizing buffer #2 (0.1 Tris-HCl, pH 8.0, 1 mM EDTA, 0.15M NaCl, 0.3 mM oxidized glutathione), stirred for 2-48 hr at room temperature, and concentrated 100-fold to 285 μg/ml by ultrafiltration using an Amicon stirred flow cell. Factor Xa cleavage reactions were carried out at room temperature overnight. Ten μl samples were periodically removed and assayed for chymase activity in the presence or absence of various proteinase inhibitors. Several control experiments were also performed as described below.

[2] = test system: human heart chymase; settings: none = 100, cited from earlier work
[3] = Assay for chymase proteolytic activity on chromogenic substrate; assay type: biochemical; settings: for proteolytic activity on chromogenic substrate: not refolded, chymase substrate succinyl-L-PheProPhe-p-nitroanilide; for activity released by Factor Xa: refolded fusion protein
Experimental: as §1, §2

[4] = at 37° C.; Caughey et al., 1988; cited from earlier work
[5] = test system: airway submucosal gland cells; settings: cited from earlier work
[6] = test system: Chymase; settings: general statement, no concentration; cited from earlier work

Molecule: CC(=O)N[C@@H](CC(C)C)C(=O)N[C@@H](CC(C)C)C(=O)N[C@H](C=O)CCCNC(=N)N [LEU, leupeptin]
- remaining activity at 10 µM ([1]; 10 μM inhibitor, read-out: % Residual Activity, Recombinant Enzyme): 100%
- % Residual Activity, Heart Chymase ([2]; 10 μM inhibitor): 106%

Molecule: O=S(=O)(F)Cc1ccccc1 [PMSF, phenylmethylsulfonyl fluoride]
- % Residual Activity, Recombinant Enzyme ([1]; 1 mM inhibitor): 0%
- % Residual Activity, Heart Chymase ([2]; 1 mM inhibitor): 0%

B2: Chymase: serine protease with chymotrypsin-like substrate specificity of mast cells (protein)
chain: T1 sequence (P23946 22-247)
- specific activity [4]: 110 absorbance units/mg/min
- secretagogue activity [5]: extremely potent secretagogue

B4: Free chymase: Free chymase, released by Factor Xa cleavage of the fusion protein (protein)
chain: T1 sequence (P23946 22-247)
- proteolytic activity on chromogenic substrate [3]: inactive as a protease

B5: SBTI: soybean trypsin inhibitor (protein)
chain: DFVLDNEGNPLENGGTYYILSDITAFGGIRAAPTGNERCPLTVVQSRNELDKGIGTIISSPYRIRFIAEGHPLSLKFDSFAVIMLCVGIPTEWSVVEDLPEGPAVKIGENKDAMDGWFRLERVSDDEFNNYKLVFCPQQAEDDKCGDIGISIDHDDGTRRLVVSKNKPLVVQFQKLDKESL
- % Residual Activity, Recombinant Enzyme ([1]; 25 μM inhibitor): 0%
- % Residual Activity, Heart Chymase ([2]; 1 μM inhibitor): 0%
- % Residual Activity, Heart Chymase ([2]; 100 μM inhibitor): 0%
- inhibition of chymase [6]: inhibited

Second part, led by results:

- remaining activity at 100 µM ([1]; 100 μM inhibitor, read-out: % Residual Activity, Recombinant Enzyme): 0%
Molecule: Cc1ccc(S(=O)(=O)N[C@@H](Cc2ccccc2)C(=O)CCl)cc1 [TPCK, ptosyl-L-phenylalanine chloromethyl ketone]
- % Residual Activity, Heart Chymase ([2]; 1 mM inhibitor): 30%

- proteolytic activity on chromogenic substrate [3]: no detectable proteolytic activity
B1: MBP-chymase: catalytic domain of human mast cell chymase fused to the maltose binding protein of Escherichia coli, wild type chymase amino acid sequence (protein)
chain: IEGRIIGGTECKPHSRPYMAYLEIVTSNGPSKFCGGFLIRRNFVLTAAHCAGRSITVTLGAHNITEEEDTWQKLEVIKQFRHPKYNTSTLHHDIMLLKLKEKASLTLAVGTLPFPSQFNFVPPGRMCRVAGWGRTGVLKPGSDTLQEVKLRLMDPQACSHFRDFDHNLQLCVGNPRKTKSAFKGDSGGPLLCAGVAQGIVSYGRSDAKPPAVFTRISHYRPWINQILQAN
- enzymatic activity on the chymase substrate (control experiments) ([3]; Factor Xa alone, or fusion protein in the absence of Factor Xa): did not result in detectable enzymatic activity

- activity released by Factor Xa ([3]; at 2 hours): 2.7 µg/mL
- activity released by Factor Xa ([3]; at 5 hours, remained at this level for up to 24 hours): 4.6 µg/mL
B3: recombinant human chymase: enzymatically active, recombinant human chymase released by Factor Xa cleavage of the refolded fusion protein (protein)
chain: T1 sequence (P23946 22-247)
- enzymatic activity of released recombinant human chymase ([3]; refolded fusion protein cleaved by Factor Xa, hydrolysis of the chymase substrate): enzymatically active
